Results as given in US20180155451A1 (published 2018).

T1: FcγRIIa R (FcγRIIa, allotype R: Arg at position 131) extracellular domain with C-terminal His tag (human, UniProt P12318 34-217)
T1 construct: extracellular domain; also called FcgRIIa R; 2aR; not shown: His tag at the C terminus
T1 sequence (looked up): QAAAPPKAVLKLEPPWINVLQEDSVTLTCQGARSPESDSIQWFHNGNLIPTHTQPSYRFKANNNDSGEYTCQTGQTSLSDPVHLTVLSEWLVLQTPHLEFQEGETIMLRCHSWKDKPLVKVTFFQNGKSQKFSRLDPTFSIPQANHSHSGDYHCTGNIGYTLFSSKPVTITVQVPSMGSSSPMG

T2: FcγRIIb extracellular domain with C-terminal His tag (human, UniProt P31994 43-217)
T2 construct: extracellular domain; also called FcgRIIb; 2b; not shown: His tag at the C terminus
T2 sequence (looked up): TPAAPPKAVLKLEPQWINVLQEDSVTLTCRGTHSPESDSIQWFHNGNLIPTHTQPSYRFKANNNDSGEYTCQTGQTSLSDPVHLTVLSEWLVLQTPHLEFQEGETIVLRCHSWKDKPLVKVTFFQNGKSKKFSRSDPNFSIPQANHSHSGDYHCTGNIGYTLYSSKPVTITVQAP


What was measured:
[1] = molecular target: T1, FcγRIIa R (FcγRIIa, allotype R: Arg at …); assay: SPR Biacore, antibody captured, FcgR analyte; vs HeCon Ab GpH7-A5/GpH7-B3/GpL16-k0 = 100
Protocol: (§1) The heterodimerized antibodies He Abs in which one of the H chains was introduced with an alteration were assayed for their binding activities to each activating FcγR and inhibitory FcγR according to the method described in Example 4. […] The activating FcγRs in FIGS. 26, 27, 28, and 29 are FcγRIa, FcγRIIa (R), FcγRIIa (H), and FcγRIIIa, respectively.
(§2) Analysis of interaction between objective antibody and the FcγR was carried out using Biacore T100 (GE Healthcare). HBS-EP+ (GE Healthcare) was used as the running buffer, and the measurement temperature was set to 25° C. Chips produced by immobilizing the antigen peptide by the amine coupling method to a Series S Sencor Chip CM5 (GE Healthcare), or alternatively, chips produced by allowing preliminarily biotinylated antigen peptides to interact with and immobilize onto a Series S Sensor Chip SA (certified) (GE Healthcare) were used. Antibodies of interest were captured onto an antigen peptide-immobilized chip, and allowed to interact to each FcγR diluted with running buffer. To regenerate and repeatedly use the chip, the antibodies captured on the chip were washed off by reacting 10 mM glycine-HCl, pH 1.5.

[2] = molecular target: T2, FcγRIIb extracellular domain with …; assay: as above
Protocol: as §1, §2

Row | Binder | He/Con_2aR [1] [control = 100] | He/Con_2b [2] [control = 100]
1 | GpH7-A5/GpH7-B3 variant H268_11K/GpL16-k0 (antibody, human IgG1, kappa, He Ab: alteration in the GpH7-B3 H chain only; also called He Ab) heavy 1: not shown heavy 2: not shown light: DIVMTQSPLSLPVTPGEPASISCQASESLVHSNRNTYLHWYLQKPGQSPQLLIYKVSNRFSGVPDRFSGSGSGTDFTLKISRVEAEDVGVYYCSQNTHVPPTFGQGTKVEIERTVAAPSVFIFPPSDEQLKSGTASVVCLLNNFYPREAKVQWKVDNALQSGNSQESVTEQDSKDSTYSLSSTLTLSKADYEKHKVYACEVTHQGLSSPVTKSFNRGEC | 100 | 83
2 | GpH7-A5/GpH7-B3 variant H268_12R/GpL16-k0 (antibody, human IgG1, kappa, He Ab: alteration in the GpH7-B3 H chain only; also called He Ab) heavy 1: not shown heavy 2: not shown light: DIVMTQSPLSLPVTPGEPASISCQASESLVHSNRNTYLHWYLQKPGQSPQLLIYKVSNRFSGVPDRFSGSGSGTDFTLKISRVEAEDVGVYYCSQNTHVPPTFGQGTKVEIERTVAAPSVFIFPPSDEQLKSGTASVVCLLNNFYPREAKVQWKVDNALQSGNSQESVTEQDSKDSTYSLSSTLTLSKADYEKHKVYACEVTHQGLSSPVTKSFNRGEC | 105 | 89.8
3 | GpH7-A5/GpH7-B3 variant K326_12R/GpL16-k0 (antibody, human IgG1, kappa, He Ab: alteration in the GpH7-B3 H chain only; also called He Ab) heavy 1: not shown heavy 2: not shown light: DIVMTQSPLSLPVTPGEPASISCQASESLVHSNRNTYLHWYLQKPGQSPQLLIYKVSNRFSGVPDRFSGSGSGTDFTLKISRVEAEDVGVYYCSQNTHVPPTFGQGTKVEIERTVAAPSVFIFPPSDEQLKSGTASVVCLLNNFYPREAKVQWKVDNALQSGNSQESVTEQDSKDSTYSLSSTLTLSKADYEKHKVYACEVTHQGLSSPVTKSFNRGEC | 103 | 89.2
4 | GpH7-A5/GpH7-B3 variant L234_04F/GpL16-k0 (antibody, human IgG1, kappa, He Ab: alteration in the GpH7-B3 H chain only; also called He Ab) heavy 1: not shown heavy 2: not shown light: DIVMTQSPLSLPVTPGEPASISCQASESLVHSNRNTYLHWYLQKPGQSPQLLIYKVSNRFSGVPDRFSGSGSGTDFTLKISRVEAEDVGVYYCSQNTHVPPTFGQGTKVEIERTVAAPSVFIFPPSDEQLKSGTASVVCLLNNFYPREAKVQWKVDNALQSGNSQESVTEQDSKDSTYSLSSTLTLSKADYEKHKVYACEVTHQGLSSPVTKSFNRGEC | 104 | 99.8
5 | GpH7-A5/GpH7-B3 variant N325_10E/GpL16-k0 (antibody, human IgG1, kappa, He Ab: alteration in the GpH7-B3 H chain only; also called He Ab) heavy 1: not shown heavy 2: not shown light: DIVMTQSPLSLPVTPGEPASISCQASESLVHSNRNTYLHWYLQKPGQSPQLLIYKVSNRFSGVPDRFSGSGSGTDFTLKISRVEAEDVGVYYCSQNTHVPPTFGQGTKVEIERTVAAPSVFIFPPSDEQLKSGTASVVCLLNNFYPREAKVQWKVDNALQSGNSQESVTEQDSKDSTYSLSSTLTLSKADYEKHKVYACEVTHQGLSSPVTKSFNRGEC | 105 | 95.9
6 | GpH7-A5/GpH7-B3 variant N325_14T/GpL16-k0 (antibody, human IgG1, kappa, He Ab: alteration in the GpH7-B3 H chain only; also called He Ab) heavy 1: not shown heavy 2: not shown light: DIVMTQSPLSLPVTPGEPASISCQASESLVHSNRNTYLHWYLQKPGQSPQLLIYKVSNRFSGVPDRFSGSGSGTDFTLKISRVEAEDVGVYYCSQNTHVPPTFGQGTKVEIERTVAAPSVFIFPPSDEQLKSGTASVVCLLNNFYPREAKVQWKVDNALQSGNSQESVTEQDSKDSTYSLSSTLTLSKADYEKHKVYACEVTHQGLSSPVTKSFNRGEC | 105 | 91.6
7 | GpH7-A5/GpH7-B3 variant N325_15Y/GpL16-k0 (antibody, human IgG1, kappa, He Ab: alteration in the GpH7-B3 H chain only; also called He Ab) heavy 1: not shown heavy 2: not shown light: DIVMTQSPLSLPVTPGEPASISCQASESLVHSNRNTYLHWYLQKPGQSPQLLIYKVSNRFSGVPDRFSGSGSGTDFTLKISRVEAEDVGVYYCSQNTHVPPTFGQGTKVEIERTVAAPSVFIFPPSDEQLKSGTASVVCLLNNFYPREAKVQWKVDNALQSGNSQESVTEQDSKDSTYSLSSTLTLSKADYEKHKVYACEVTHQGLSSPVTKSFNRGEC | 101 | 99.5
8 | GpH7-A5/GpH7-B3 variant P331_02A/GpL16-k0 (antibody, human IgG1, kappa, He Ab: alteration in the GpH7-B3 H chain only; also called He Ab) heavy 1: not shown heavy 2: not shown light: DIVMTQSPLSLPVTPGEPASISCQASESLVHSNRNTYLHWYLQKPGQSPQLLIYKVSNRFSGVPDRFSGSGSGTDFTLKISRVEAEDVGVYYCSQNTHVPPTFGQGTKVEIERTVAAPSVFIFPPSDEQLKSGTASVVCLLNNFYPREAKVQWKVDNALQSGNSQESVTEQDSKDSTYSLSSTLTLSKADYEKHKVYACEVTHQGLSSPVTKSFNRGEC | 106 | 99.5
9 | GpH7-A5/GpH7-B3 variant P331_08L/GpL16-k0 (antibody, human IgG1, kappa, He Ab: alteration in the GpH7-B3 H chain only; also called He Ab) heavy 1: not shown heavy 2: not shown light: DIVMTQSPLSLPVTPGEPASISCQASESLVHSNRNTYLHWYLQKPGQSPQLLIYKVSNRFSGVPDRFSGSGSGTDFTLKISRVEAEDVGVYYCSQNTHVPPTFGQGTKVEIERTVAAPSVFIFPPSDEQLKSGTASVVCLLNNFYPREAKVQWKVDNALQSGNSQESVTEQDSKDSTYSLSSTLTLSKADYEKHKVYACEVTHQGLSSPVTKSFNRGEC | 102 | 95.7
